# What was measured:
# Test in all cases: purified protein
# Format in all cases: biochemical, Plenodomus lingam
# Conditions in all cases: 1 mM [1-14C]DMAPP, 100 mM Tris-HCl pH 8.0, 2% glycerol, 30 °C
# [1] = system: COc1cccc2[nH]cc(C[C@H](N)C(=O)O)c12
# [2] = system: N[C@@H](Cc1c[nH]c2ccccc12)C(=O)O
# [3] = system: Cc1cccc2c(C[C@H](N)C(=O)O)c[nH]c12
substance,measurement,setting,value
SirD (tyrosine O-prenyltransferase; dimethylallyltyrosine synthase) (Plenodomus lingam),Km,[1],5100 ± 2000 µM
same,kcat/Km,[1],2.5 M⁻¹ s⁻¹
same,Km,[2],370 ± 60 µM
same,kcat,[2],0.095 ± 0.002 s⁻¹
same,kcat/Km,[2],260 M⁻¹ s⁻¹
same,Km,[3],2000 ± 400 µM
same,kcat/Km,[3],6.5 M⁻¹ s⁻¹

# Source: article PMC3870192
